One may read the Kd as the concentration at which binding is half-saturated. The koff is a measure of how fast the partners let go of each other. For orientation: kon means the second-order rate constant of association.

Where two headings read alike, the source gives them in different places.

Holding throughout (assay): SPR
The target in experiment [1] is T1, recombinant SARS-CoV N protein (SARS coronavirus (SARS-CoV), UniProt P59595 1-422).
In experiment [2] the target is T1, recombinant SARS-CoV N protein. The source holds these as a separate data set.
For experiment [3], the target named is His-tagged N11 (aa283-422 of SARS-CoV N protein) (SARS coronavirus (SARS-CoV), UniProt P59595 283-422).
Sequence of His-tagged N11 (aa283-422 of SARS-CoV N protein) (P59595 283-422): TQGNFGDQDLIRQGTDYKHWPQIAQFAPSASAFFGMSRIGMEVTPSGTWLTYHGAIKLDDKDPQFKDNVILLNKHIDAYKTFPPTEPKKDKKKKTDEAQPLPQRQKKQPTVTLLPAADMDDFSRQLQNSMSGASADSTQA
Experiment [4] concerns the target T1, recombinant SARS-CoV N protein. This is another data set of the same source.

T1 sequence (P59595 whole entry): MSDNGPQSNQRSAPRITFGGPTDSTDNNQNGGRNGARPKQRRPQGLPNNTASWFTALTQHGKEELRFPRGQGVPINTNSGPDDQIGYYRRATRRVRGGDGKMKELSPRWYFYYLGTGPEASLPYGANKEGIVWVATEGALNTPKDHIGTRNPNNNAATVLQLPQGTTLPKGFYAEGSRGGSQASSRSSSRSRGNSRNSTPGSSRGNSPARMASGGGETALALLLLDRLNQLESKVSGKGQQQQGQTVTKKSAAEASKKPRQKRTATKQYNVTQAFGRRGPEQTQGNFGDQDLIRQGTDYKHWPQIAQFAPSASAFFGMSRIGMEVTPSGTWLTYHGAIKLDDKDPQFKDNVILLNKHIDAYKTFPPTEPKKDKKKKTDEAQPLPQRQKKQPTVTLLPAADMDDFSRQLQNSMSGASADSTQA

RYRIGNYKLNTDHAGSNDNIALLVQ [MCT peptide (residues 197-221 of SARS-CoV M protein)]: in experiment [1], the Kd stood at 75 ± 5 µM, the koff came out at 0.0394 ± 0.002 s⁻¹ and the kon was determined as 509 ± 42 M⁻¹ s⁻¹.

B1: His-tagged SARS-CoV ME (endodomain of M protein, aa102-221) (domain or fragment)
chain: FARTRSMWSFNPETNILLNVPLRGTIVTRPLMESELVIGAVIIRGHLRMAGHSLGRCDIKDLPKEITVATSRTLSYYKLGASQRVGTDSGFAAYNRYRIGNYKLNTDHAGSNDNIALLVQ
Take B1: the Kd in experiment [2] amounted to 49.2 µM; in experiment [1], 0.55 ± 0.04 µM; in experiment [3], 0.61 ± 0.06 µM; in experiment [4], 21.2 µM. The off-rate constant (koff) in experiment [1] came to 0.00223 s⁻¹. In addition, in experiment [1], the kon is 4180 M⁻¹ s⁻¹.

Values taken from PMC7108423 (The International Journal of Biochemistry & Cell Biology, 2005).
